# Data taken from the nanobody polyreactivity screen of Harvey et al. (2022).
# Assay: yeast display, Sf9 membrane polyspecificity reagent, FACS + sequencing; frameworks hold sequencing errors
# In short: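 Sorting gates, low and high (top ~1%), were placed on anti-HA fluorescence to track expression and on streptavidin fluorescence to track reagent binding. A clone's polyreactivity label is taken from the gate it came out of. The reagent was 10% biotinylated, detergent-solubilized Sf9 membrane, applied for 1 hour at 4 °C to galactose-induced yeast display cells.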
row,Sequence,polyreactivity (PSR sort gate)
1,QVQHVESRGGLVQAGGSLRLSCAASGRTFQANAMGCYRQAPGKERELVAAITGRGGTTYYADSVKGRFTISRDNAKNTVYLQMNSLKPEDTAVYYCARALSGYGFWGYEYWGQGTQVTVSS,low polyreactivity
2,QVQLVESGGGLVQAGGSLRLSCAASGRTFNAMGWSRQAPGKERELVASISRRGGSTSYADSVKGRFTISRDNAKNTVYLQMYSLKPEDTAVYYCAARVGWVRYGYWGQGTQVTVSS,low polyreactivity
3,QVQLVESGGGLVQAGGSLRLSCAASGSTLHEYAMGWYRQAPGKARELVAAISRGGGNTNYADSVKGRFTISRDNAKNTVYLQMNSLIPEDTAVYYCNARHGKIIFYLERYDYWGQGTQVTVSS,low polyreactivity
4,QVQLVESGGGLVQAGGSLRLSCAASGRTFKVNAMGWYRQAPGKERELVAAITYSGGGTYYADSVKGRFTISRDNAKNTVYLQMNSLKPEDTAVYYCAAPVYTWYHRYDYWGQGTQVTVSS,high polyreactivity
5,QVQLVESGGGLVQAGGSLRLSCAASGRIFSDNAMGWYRQAPGKERELVAAITDRGGSTYYADSVKGRFTISRDNAQNTVYLQMNSLKPEDTAVYYCAARNTPAQLDYWGQGTQVTVSS,low polyreactivity
6,QGQLVETGGGLVQAGGSLRLSCGASGSTFLWNTIGWYRQGPRKERELVAEIRTSGGGTYYADSVKGRFTISRDNAKNTVYLQMNSLKPEDTEVYYCYADPKWEMGSWGQGTQVTVSS,low polyreactivity
7,QVQLVESGGGLVQAGGSLRLSCAASGSIFYGYTMGWYRQEPRKERELVAAIRKSGGSTNYADSVKGRFTISRDTAKNTVYLQMNSLKPEDTALYNCAADYYRRRGYYWGQGTQVTVSS,high polyreactivity
8,QVQLVESGGGLVQAGGSLRLSCAASGSIFYGNAMGWYRQAPGKERELVAAITRRGGRTYYADSVKGRFTISRDNAKNTVYLQMNSLKPEDTAVYYCNKDVGVAVEMGYWGQGTQVTVSS,high polyreactivity
9,QVQLVESGGGLVQAGGSLRLSCAASGRTFGPNAMGWYRQAPGKERELVAGISWRGTSTYYADSVKGRFTISRDNAKNTVYLQMNSLKPEDTAVYYCAKSVYGYGTLYDHWGQGTQVTVSS,high polyreactivity
10,QVQLVESGGGLVQAGGSLRLSCAASGYTFNNYAMGWYRQAPGKERELVAAISSSGGSTYYADSVKGRFTISRDNAKNTRYFQMNSLKPEDTAVYYGDGRPFGHGDYRGYYYWGQGTQVTVSS,low polyreactivity
11,QVQLVESGGGLVQEGGSLRLSCAASGFTFRANAMGWYRQAPGKERELVAVITGSGRTYYSDSVKGRFTISRDNAKNTVYLQMNRLKPEYTAVYYCAARAAYRVSSAGYDSLGQGTQVTVSS,high polyreactivity
12,QVQLEESVGGLVQAGGSLRLTCAASGSIFKTNAIGWYRQAPGKERELVAAIRASGGSTYYADSVKGRFTISRDNAKNSVYLQMNSLKPEDTAVYYCAARYWFKYYWGQGTQVTVSS,low polyreactivity
13,QVQLVESGGGLVQAGGSLRLSCAASGRTFRWYAMGWYRQAPGKERELVARITYSGGSTYYADSVKGRFTISRDNAKNTVYLQMNSLKPEDTAVYYCAAKRYTGSSSIYYYWGQGTQVTVSS,high polyreactivity
14,QVQLVESGGGLVQAGGSLRLSCAASGSTFGRYTMGWYRQAPRKERELVAAITSGGGSTYYADSVKGRFTISRDNAKNTVYLQMNSLKPEDTAVYYCAARSLVQDHAYGYNYWGQGTQVTVSS,low polyreactivity
15,QVQLVESGGGLVQAGGSLRLTCAASGSIFEVNAMGWYRQAPGKERELVAGISNADSTNYADSVKGRFTISRDNAKNTVYLQMNSLKPEDTAVYYCATDLDRDLPKDLLGPEYDYWGQGTQVTVSS,low polyreactivity
16,QVQLVESGGGLVQAGGSLRLICAASGSTFLKYAMGWYRQAPGKERELVAAITYRGGTTYYADSVKGRFTISRDNAKNTVYLQMNSLKPEDTAVYYCAARGYKRMGYWGQGTQVTVSS,high polyreactivity
17,QVQLVESGGGLVQAGGSLRLSCAASGRIFNFNGMGWYRQAPGKERELVAAITSGGSTYYADSVKGRFTISRDNAKNTVYLQMNSLKPEDTAVYYCAAQNAWWSNGRSYDYWGQGTQVTVSS,low polyreactivity
